How the values were obtained:
[1] = target: adiponectin (HMW) (Homo sapiens) (UniProt Q15848); settings: cited from earlier work
[2] = target: the molecule itself; assay: native gel or EMSA; native-PAGE of purified or recombinant adiponectin, 50 ng adiponectin, Western blot
[3] = target: the molecule itself; assay: native gel or EMSA; native-PAGE of mouse serum, 50 ng adiponectin, Western blot

Chain of adiponectin (HMW) (Homo sapiens) (Q15848 19-244): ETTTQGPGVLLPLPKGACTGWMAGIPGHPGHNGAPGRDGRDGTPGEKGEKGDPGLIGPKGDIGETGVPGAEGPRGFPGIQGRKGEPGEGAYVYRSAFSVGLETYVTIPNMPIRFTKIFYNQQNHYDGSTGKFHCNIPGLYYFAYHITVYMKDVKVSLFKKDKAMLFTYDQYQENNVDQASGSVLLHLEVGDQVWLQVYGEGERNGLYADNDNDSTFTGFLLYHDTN

Molecule: T-cadherin (from UniProt P55290)
- Kd [1]: 1 nM

B1: Full-length mammalian recombinant mouse adiponectin (ligand, UniProt Q60994 18-247, looked up)
chain: EDDVTTTEELAPALVPPPKGTCAGWMAGIPGHPGHNGTPGRDGRDGTPGEKGEKGDAGLLGPKGETGDVGMTGAEGPRGFPGTPGRKGEPGEAAYVYRSAFSVGLETRVTVPNVPIRFTKIFYNQQNHYDGSTGKFYCNIPGLYYFSYHITVYMKDVKVSLFKKDKAVLFTYDQYQEKNVDQASGSVLLHLEVGDQVWLQVYGDGDHNGLYADNVNDSTFTGFLLYHDTN
notes: adiponectin, mouse, full-length recombinant, produced in HEK293 cells; contains less 6-mer and HMW multimer than serum adiponectin; the secreted product probably lacks the signal peptide; also called recombinant adiponectin; full-length recombinant adiponectin produced in HEK293 cells; source: bought: BioVendor (RD272023100), produced in HEK293 cells
- binding result [2]: binds

B2: native mouse adiponectin in mouse serum (ligand, UniProt Q60994 18-247, looked up)
chain: B1 chain
notes: adiponectin, mouse, circulating protein of serum; multimers (6-mer and HMW multimer) seen by native-PAGE; Used both as whole serum and as adiponectin purified from serum; Mixture of multimers; also called mouse serum adiponectin; native adiponectin; source: endogenous, serum of C57BL6J mice, used as serum without processing; also purified from mouse serum (Fukuda et al., 2017)
- binding result [3]: binds

From paper PMC6822988, “Native adiponectin in serum binds to mammalian cells expressing T-cadherin, but not AdipoRs or calreticulin” (eLife, 2019)
